Reference: patent US7393670B2, “Tyrosyl-tRNA synthetase variants” (Japan Science and Technology Agency, priority 2001, dated 2008)

Columns and labels:
[1] = test system: wheat germ cell-free translation system; experiment: LC-MS analysis of K3 fragment of Ras translation products; type: biochemical; conditions: absorbance of chromatogram
Procedure: It was examined by mass spectrometry that iodotyrosine was actually inserted at the position corresponding to the amber codon of the peptide chain. Ras protein purified using nickel beads was applied on SDS-PAGE. A band corresponding to a mobility of Ras among stained product bands was cut out and treated with peptidase. A resultant fragment was analyzed by LC-MS (liquid chromatography—mass spectrometry). The 32nd codon of Ras protein used as a reporter protein is the codon for tyrosine. […] Among the fragments obtained by digesting the translation products, the fragment including the 32nd amino acid from N-terminus (Ser 17 to Lys 42, referred to as K3 fragment) was focused and analyzed. […] No K3 fragment was detected where the other amino acid was accidentally inserted at the site corresponding to the amber codon. The ratio of iodotyrosine to tyrosine inserted to the amber codon was examined by absorbance of chromatogram. […] On the other hand, no fragment having the mass corresponding to the case encompassing iodotyrosine in place of tyrosine was detected in the analysis of the translation products from mRNA which contained no amber codon. […]
It was examined by mass spectrometric analysis that iodotyrosine was actually inserted at the position corresponding to the amber codon of the peptide chain. […] Elutes were analyzed by Finnigan LCQ ion trap mass spectrometer using ESI probe. […]

[2] = Aminoacylation reaction, simplified Lloyd's method, inorganic phosphate detected with Biomol green; type: biochemical; design: key: ***: the reaction could be detected strongly at 25 nM; **: strongly at 250 nM; *: weakly at 250 nM; the activity is high in the order of *** > ** > * > —; conditions: Table 3; tyrosine 200 μM; 37° C. for 4 min
Procedure: In the first method, Lloyd's method (Nucleic Acids Research, 23:2886-2892, 1995) where inorganic phosphate produced by pyrophosphatase-drived hydrolysis of pyrophosphate which was one of the reaction products of the aminoacylation reactions was quantified was simplified, and the inorganic phosphate was detected using Biomol green (Funakoshi) to carry out the measurement of the aminoacylation reaction.
Amino acid concentrations were 200 μM and 1 mM for tyrosine and 3-iodotyrosine, respectively.
The method where the aminoacylation reaction is measured by quantifying inorganic phosphate produced by pyrophosphatase-drived hydrolysis of pyrophosphate which is one of reaction products of the aminoacylation has been described by Lloyd et al. (Nucleic Acids Research, 23:2886-2892, 1995). In one method of the invention, this method was simplified and the aminoacylation reaction was measured by the detection of inorganic phosphate using Biomol green (Funakoshi). […] To stop the reaction, 0.1 ml of Bio mol green was added. Absorbance of its supernatant was measured at 630 nm.

B1: VC: E. coli TyrRS double variant: position 37 Valine, position 195 Cysteine (protein, UniProt P0AGJ9 2-424, looked up, variant Y37V Q195C)
Tyrosine--tRNA ligase: ASSNLIKQLQERGLVAQVTDEEALAERLAQGPIALVCGFDPTADSLHLGHLVPLLCLKRFQQAGHKPVALVGGATGLIGDPSFKAAERKLNTEETVQEWVDKIRKQVAPFLDFDCGENSAIAANNYDWFGNMNVLTFLRDIGKHFSVNQMINKEAVKQRLNREDQGISFTEFSYNLLQGYDFACLNKQYGVVLCIGGSDQWGNITSGIDLTRRLHQNQVFGLTVPLITKADGTKFGKTEGGAVWLDPKKTSPYKFYQFWINTADADVYRFLKFFTFMSIEEINALEEEDKNSGKAPRAQYVLAEQVTRLVHGEEGLQAAKRITECLFSGSLSALSEADFEQLAQDGVPMVEMEKGADLMQALVDSELQPSRGQARKTIASNAITINGEKQSDPEYFFKEEDRLFGRFTLLRRGKKNYCLICWK
K3 fragments encompassing iodotyrosine by the amber suppression [1]: ≥ 95%
ratio of tyrosine insertion at the amber codon [1]: ≤ 5%
Aminoacylation activity, Tyrosine [2]: *
